The values below come from US20220354962A1 (University of Pennsylvania, published 2022).

Where no end group is shown, it is not given here.

The target in the experiment is BSA (UniProt P02769 25-607). Nature of the experiment: photocrosslinking with TAMRA-tagged adapter, reducing SDS-PAGE, fluorescence image.

B1: LASIC Protein G adapter with C-terminal STEPL peptide (TAMRA; TAMRA-DBCO; FAM-Azide; Biotin), BPA position not stated (designed binder)
chain: MTFKLIINGKTLKGEITIEAVDAAEAEKIFKQYANDYGIDGEWTYDDATKTFTVTE
modifications: also: BPA at unstated position, C-terminal Gly-Gly-Gly peptide carrying label (TAMRA, TAMRA-DBCO, FAM-azide or biotin)
notes: also called TAMRA dye-tagged LASIC adapter; TAMRA labeled Protein G adapter protein
For B1, the binding result was “no binding”.
